Columns and labels:
FZD7 CRD, Fc-tagged = FZD7 CRD, Fc-tagged (human, UniProt O75084 33-185); experiment: kinetic table (called BLI in paragraph 170); the row labels kd and ka are interchanged on the sheet: the KD row equals the 10^-3 row divided by the 10^5 row
FZD2 CRD, Fc-tagged = target: T1, FZD2 CRD, Fc-tagged (human, UniProt Q14332 24-190); experiment: as above
T1 construct: domain: CRD; Bought; not shown: Fc tag of the purchased fusion

FZD10 CRD, Fc-tagged = target: T2, FZD10 CRD, Fc-tagged (human, UniProt Q9ULW2 21-161); experiment: kinetic table (called BLI in paragraph 35)
T2 construct: domain: CRD; Bought; not shown: Fc tag of the purchased fusion
T2 sequence (looked up): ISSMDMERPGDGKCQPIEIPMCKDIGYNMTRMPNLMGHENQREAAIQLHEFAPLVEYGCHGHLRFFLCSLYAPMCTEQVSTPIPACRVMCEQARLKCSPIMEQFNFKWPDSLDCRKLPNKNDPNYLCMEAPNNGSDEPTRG

FZD9 CRD, Fc-tagged = target: T3, FZD9 CRD, Fc-tagged (human, UniProt O00144 23-187); experiment: kinetic table (called BLI in paragraph 35)
T3 construct: domain: CRD; Bought; not shown: Fc tag of the purchased fusion
T3 sequence (looked up): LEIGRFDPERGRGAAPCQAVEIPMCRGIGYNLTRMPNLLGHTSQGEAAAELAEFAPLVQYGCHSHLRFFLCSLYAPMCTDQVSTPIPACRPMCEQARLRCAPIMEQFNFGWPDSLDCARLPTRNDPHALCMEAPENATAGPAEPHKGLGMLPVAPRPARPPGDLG

FZD6 ECD, Fc-tagged = target: T4, FZD6 ECD, Fc-tagged (human, UniProt O60353 19-132); experiment: kinetic table (called BLI in paragraph 35)
T4 construct: range 19-132; Made in Expi293 cells; single protomer species purified by size exclusion; not shown: human IgG1 Fc of the pFUSE-hIgG1-Fc2 vector (Invivogen)
T4 sequence (looked up): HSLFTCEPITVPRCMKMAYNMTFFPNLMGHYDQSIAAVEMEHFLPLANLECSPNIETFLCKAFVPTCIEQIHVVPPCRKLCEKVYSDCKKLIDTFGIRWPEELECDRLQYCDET

- koff (FZD7 CRD, Fc-tagged): 2.9e-05 s⁻¹
- kon (FZD7 CRD, Fc-tagged): 509000 M⁻¹ s⁻¹
- koff (FZD2 CRD, Fc-tagged): 1.9e-05 s⁻¹
- kon (FZD2 CRD, Fc-tagged): 479000 M⁻¹ s⁻¹
- binding result (FZD10 CRD, Fc-tagged): no binding
- binding result (FZD9 CRD, Fc-tagged): no binding
- binding result (FZD6 ECD, Fc-tagged): no binding
B1: F^P+P-L6^1+3 (5019-K/H-2539-2542) (bispecific antibody)
chain 1: EVQLVESGGGLVQPGGSLRLSCAASGFNIGSSSIHWVRQAPGKGLEWVASIYSAFASTSYADSVKGRFTISADTSKNTAYLQMNSLRAEDTAVYYCARYHFPFGFALDYWGQGTLVTVSSGGGGSDIQMTQSPSSLSASVGDRVTITCRASQSVSSAVAWYQQKPGKAPKLLIYSASSLYSGVPSRFSGSRSGTDFTLTISSLQPEDFATYYCQQGVYLFTFGQGTKVEIKLEDKTHTKVEPKTSDKTHTCPPCPAPELLGGPSVFLFPPKPKDTLMISRTPEVTCVVVDVSHEDPEVKFNWYVDGVEVHNAKTKPREEQYNSTYRVVSVLTVLHQDWLNGKEYKCKVSNKALPAPIEKTISKAKGQPREPMVFDLPPSREEMTKNQVSLWCMVKGFYPSDIAVEWESNGQPENNYKTTPPVLDSDGSFFLYSKLTVDKSRWQQGNVFSCSVMHEALHNHYTQKSLSLSPGKSGSETPGTSESATPESGGGEVQLVESGGGLVQPGGSLRLSCAASGFNISYSSIHWVRQAPGKGLEWVAYISSYYGYTYYADSVKGRFTISADTSKNTAYLQMNSLRAEDTAVYYCARAHYFPWAGAMDYWGQGTLVTVSSGGGGSDIQMTQSPSSLSASVGDRVTITCRASQSVSSAVAWYQQKPGKAPKLLIYSASSLYSGVPSRFSGSRSGTDFTLTISSLQPEDFATYYCQQYYWPITFGQGTKVEIK
chain 2: EVQLVESGGGLVQPGGSLRLSCAASGFNIGSSSIHWVRQAPGKGLEWVASIYSAFASTSYADSVKGRFTISADTSKNTAYLQMNSLRAEDTAVYYCARYHFPFGFALDYWGQGTLVTVSSGGGGSDIQMTQSPSSLSASVGDRVTITCRASQSVSSAVAWYQQKPGKAPKLLIYSASSLYSGVPSRFSGSRSGTDFTLTISSLQPEDFATYYCQQGVYLFTFGQGTKVEIKLEDKTHTKVEPKSSDKTHNCPPCPAPELLGGPSVFLFPPKPKDTLMISRTPEVTCVVVDVSHEDPEVKFNWYVDGVEVHNAKTKPREEQYNSTYRVVSVLTVLHQDWLNGKEYKCKVSNKALPAPIEKTISKAKGQPREPQVYTLPPIRELMTSNQVSLSCAVKGFYPSDIAVEWESNGQPENNYKTTPPVLDSDGSFFLVSKLTVDKSRWQQGNVFSCSVMHEALHNHYTQKSLSLSPGKSGSETPGTSESATPESGGGEVQLVESGGGLVQPGGSLRLSCAASGFNISSYYIHWVRQAPGKGLEWVASIYSSYGYTSYADSVKGRFTISADTSKNTAYLQMNSLRAEDTAVYYCARTVRGSKKPYFSGWAMDYWGQGTLVTVSSGGGGSDIQMTQSPSSLSASVGDRVTITCRASQSVSSAVAWYQQKPGKAPKLLIYSASSLYSGVPSRFSGSRSGTDFTLTISSLQPEDFATYYCQQYSWGPFTFGQGTKVEIK

— US20210032352A1 (ANTERA THERAPEUTICS, published 2021)
